Measured values: US20230035659A1, “Compositions and Methods for TTR Gene Editing and Treating ATTR Amyloidosis Comprising a Corticosteroid or Use Thereof” (Intellia Therapeutics, Inc., priority 2019, published 2023)
Strand notation (5' to 3'): a small letter for the sugar, then the base; units joined by * are phosphorothioate-linked, units joined directly phosphodiester-linked; [ ] holds rarer units or linkages, { } end groups; capitals alone tell only the bases. m = 2'-O-methyl; r = 2'-OH (RNA)

Tests used:
[1] = test system: TTR; assay: TTR editing in primary human hepatocytes treated with LNP formulated Spy Cas9 mRNA (SEQ ID NO: 2) and sgRNAs, 12.5 ng mRNA; format: cell-based; details: LNP formulated Spy Cas9 mRNA (SEQ ID NO: 2) and sgRNA, 12.5 ng mRNA, 3.9 nM sgRNA, 72 hours
Protocol: Primary liver hepatocytes. Primary human liver hepatocytes (PHH) and primary cynomolgus liver hepatocytes (PCH) (Gibco) were cultured per the manufacturer's protocol (Invitrogen, protocol 11.28.2012). In brief, the cells were thawed and resuspended in hepatocyte thawing medium with supplements (Gibco, Cat. CM7000) followed by centrifugation at 100 g for 10 minutes for human and 80 g for 4 minutes for cyno. The supernatant was discarded and the pelleted cells resuspended in hepatocyte plating medium plus supplement pack (Invitrogen, Cat. A1217601 and CM3000). Cells were counted and plated on Bio-coat collagen I coated 96-well plates (ThermoFisher, Cat. 877272) at a density of 33,000 cells/well for human or 60,000 cells/well for cyno (or 65,000 cells/well when assaying effects on TTR protein, described further below). Plated cells were allowed to settle and adhere for 6 or 24 hours in a tissue culture incubator at 37° C. and 5% CO2 atmosphere. After incubation cells were checked for monolayer formation and media was replaced with hepatocyte culture medium with serum-free supplement pack (Invitrogen, Cat. A1217601 and CM4000).
In general, the lipid nanoparticle components were dissolved in 100% ethanol with the lipid component of various molar ratios. The RNA cargos were dissolved in 25 mM citrate, 100 mM NaCl, pH 5.0, resulting in a concentration of RNA cargo of approximately 0.45 mg/mL. The LNPs were formulated with a lipid amine to RNA phosphate (N:P) molar ratio of about 4.5 or about 6, with the ratio of mRNA to gRNA at 1:1 by weight.
The LNPs were formed by microfluidic mixing of the lipid and RNA solutions using a Precision Nanosystems NanoAssemblr™ Benchtop Instrument, according to the manufacturer's protocol. A 2:1 ratio of aqueous to organic solvent was maintained during mixing using differential flow rates. After mixing, the LNPs were collected, diluted in water (approximately 1:1 v/v), held for 1 hour at room temperature, and further diluted with water (approximately 1:1 v/v) before final buffer exchange. The final buffer exchange into 50 mM Tris, 45 mM NaCl, 5% (w/v) sucrose, pH 7.5 (TSS) was completed with PD-10 desalting columns (GE). If required, formulations were concentrated by centrifugation with Amicon 100 kDa centrifugal filters (Millipore). The resulting mixture was then filtered using a 0.2 μm sterile filter. The final LNP was stored at −80° C. until further use.
Additional PCR was performed per the manufacturer's protocols (Illumina) to add chemistry for sequencing. The amplicons were sequenced on an Illumina MiSeq instrument. The reads were aligned to a reference genome (e.g., the human reference genome (hg38), the cynomologus reference genome (mf5), the rat reference genome (rn6), or the mouse reference genome (mm10)) after eliminating those having low quality scores. The resulting files containing the reads were mapped to the reference genome (BAM files), where reads that overlapped the target region of interest were selected and the number of wild type reads versus the number of reads which contain an insertion, substitution, or deletion was calculated.
The editing percentage (e.g., the “editing efficiency” or “percent editing” or “indel frequency”) is defined as the total number of sequence reads with insertions/deletions (“indels”) or substitutions over the total number of sequence reads, including wild type.
Lipid nanoparticle formulations of modified sgRNAs targeting human TTR and the cyno matched sgRNA sequences were tested on primary human hepatocytes and primary cyno hepatocytes in a dose response curve. Primary human and cyno hepatocytes were plated as described in Example 1. Both cell lines were incubated at 37° C., 5% CO2 for 24 hours prior to treatment with LNPs. The LNPs used in the experiments detailed in Tables 18-21 were prepared using the Nanoassemblr™ procedure, each containing the specified sgRNA and Cas9 mRNA (SEQ ID NO:2), each having Lipid. […]

[2] = test system: TTR; assay: TTR editing dose response (EC50, maximum editing) in primary human hepatocytes treated with LNP formulated U-depleted Spy Cas9 mRNA and sgRNAs; format: cell-based; details: LNP formulated U-depleted Spy Cas9 mRNA and human specific sgRNAs, dose response
Method in brief: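 Primary human hepatocytes, plated 24 h earlier, got LNPs carrying Cas9 mRNA and sgRNA, preincubated 5 min in medium with 6% cyno serum. Dosing was an 8-point 3-fold series from 300 ng mRNA. At 72 h, NGS read indel/substitution frequency at the target, giving EC50 and maximum percent editing.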

[3] = test system: TTR; assay: TTR editing dose response (EC50, maximum editing) in primary cyno hepatocytes treated with LNP formulated U-depleted Spy Cas9 mRNA and sgRNAs; format: cell-based, cynomolgus monkey; details: LNP formulated U-depleted Spy Cas9 mRNA and human specific sgRNAs
Method in brief: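 Primary cyno hepatocytes, 24 h after plating, treated with LNPs (Cas9 mRNA plus sgRNA) preincubated 5 min in medium with 6% cyno serum; 8-point 3-fold doses from 300 ng mRNA. Lysed at 72 h; indel/substitution percentage by amplicon NGS, giving EC50 and maximum editing.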

[4] = test system: potential off-target genomic sites; assay: Off-target analysis by oligo insertion based assay in primary human hepatocytes (sgRNAs); format: cell-based; details: 100 ng Cas9 mRNA, 25 nM sgRNA, 12.5 nM donor oligo, 48 h

Molecule	12.5 ng mRNA, 3.9 nM sgRNA, Avg % Edit [1]	Max Editing [2]	Max Editing [3]	# Sites in PHH (off-target integration sites detected) [4]
G000568: TTR sgRNA modified sequence, Human, SEQ ID NO: 110; guide sequence of CR003391 (nucleic acid) guide: mG*mG*mC*rUrGrUrCrGrUrCrArCrCrArArUrCrCrCrArGrUrUrUrUrArGrAmGmCmUmAmGmAmAmAmUmAmGmCrArArGrUrUrArArArArUrArArGrGrCrUrArGrUrCrCrGrUrUrArUrCrAmAmCmUmUmGmAmAmAmAmAmGmUmGmGmCmAmCmCmGmAmGmUmCmGmGmUmGmCmU*mU*mU*mU	54.60%	95.72%	87.93%	11
G000481: TTR sgRNA modified sequence, Human, SEQ ID NO: 88; guide sequence of CR003345 (nucleic acid, sugars from the 5' end m3 r25 m12 r28 m32, backbone not given here; further chemistry not fully specified) guide: UCUAGAACUUUGACCAUCAGGUUUUAGAGCUAGAAAUAGCAAGUUAAAAUAAGGCUAGUCCGUUAUCAACUUGAAAAAGUGGCACCGAGUCGGUGCUUUU	24.37%	87.05%	95.07%	0
G000490: TTR sgRNA modified sequence, Human, SEQ ID NO: 97; guide sequence of CR003366 (nucleic acid) guide: mA*mA*mA*rUrArGrArCrArCrCrArArArUrCrUrUrArCrGrUrUrUrUrArGrAmGmCmUmAmGmAmAmAmUmAmGmCrArArGrUrUrArArArArUrArArGrGrCrUrArGrUrCrCrGrUrUrArUrCrAmAmCmUmUmGmAmAmAmAmAmGmUmGmGmCmAmCmCmGmAmGmUmCmGmGmUmGmCmU*mU*mU*mU	10.53%	94.16%	90.76%	0
G000572: TTR sgRNA modified sequence, Human, SEQ ID NO: 113; guide sequence of CR003385 (nucleic acid) guide: mC*mC*mC*rCrUrArCrUrCrCrUrArUrUrCrCrArCrCrArGrUrUrUrUrArGrAmGmCmUmAmGmAmAmAmUmAmGmCrArArGrUrUrArArArArUrArArGrGrCrUrArGrUrCrCrGrUrUrArUrCrAmAmCmUmUmGmAmAmAmAmAmGmUmGmGmCmAmCmCmGmAmGmUmCmGmGmUmGmCmU*mU*mU*mU	55.45%	97.94%	100.31%	2
G000489: TTR sgRNA modified sequence, Human, SEQ ID NO: 96; guide sequence of CR003344 (nucleic acid) guide: mU*mU*mU*rGrArCrCrArUrCrArGrArGrGrArCrArCrUrGrUrUrUrUrArGrAmGmCmUmAmGmAmAmAmUmAmGmCrArArGrUrUrArArArArUrArArGrGrCrUrArGrUrCrCrGrUrUrArUrCrAmAmCmUmUmGmAmAmAmAmAmGmUmGmGmCmAmCmCmGmAmGmUmCmGmGmUmGmCmU*mU*mU*mU	16.85%	86.33%	89.21%	2
G000493: TTR sgRNA modified sequence, Human, SEQ ID NO: 100; guide sequence of CR003368 (nucleic acid) guide: mA*mA*mG*rUrGrCrCrUrUrCrCrArGrUrArArGrArUrUrGrUrUrUrUrArGrAmGmCmUmAmGmAmAmAmUmAmGmCrArArGrUrUrArArArArUrArArGrGrCrUrArGrUrCrCrGrUrUrArUrCrAmAmCmUmUmGmAmAmAmAmAmGmUmGmGmCmAmCmCmGmAmGmUmCmGmGmUmGmCmU*mU*mU*mU	7.33%	63.95%	61.15%	1
G000500: TTR sgRNA modified sequence, Human, SEQ ID NO: 107; guide sequence of CR003337 (nucleic acid) guide: mC*mC*mA*rGrUrCrCrArGrCrArArGrGrCrArGrArGrGrGrUrUrUrUrArGrAmGmCmUmAmGmAmAmAmUmAmGmCrArArGrUrUrArArArArUrArArGrGrCrUrArGrUrCrCrGrUrUrArUrCrAmAmCmUmUmGmAmAmAmAmAmGmUmGmGmCmAmCmCmGmAmGmUmCmGmGmUmGmCmU*mU*mU*mU	23.57%	88.70%	58.04%	12
G000484: TTR sgRNA modified sequence, Human, SEQ ID NO: 91; guide sequence of CR003367 (nucleic acid) guide: mA*mG*mA*rCrArCrCrArArArUrCrUrUrArCrUrGrGrArGrUrUrUrUrArGrAmGmCmUmAmGmAmAmAmUmAmGmCrArArGrUrUrArArArArUrArArGrGrCrUrArGrUrCrCrGrUrUrArUrCrAmAmCmUmUmGmAmAmAmAmAmGmUmGmGmCmAmCmCmGmAmGmUmCmGmGmUmGmCmU*mU*mU*mU	16.67%	94.14%	0.22%	0
G000488: TTR sgRNA modified sequence, Human, SEQ ID NO: 95; guide sequence of CR003346 (nucleic acid) guide: mA*mA*mA*rGrUrUrCrUrArGrArUrGrCrUrGrUrCrCrGrGrUrUrUrUrArGrAmGmCmUmAmGmAmAmAmUmAmGmCrArArGrUrUrArArArArUrArArGrGrCrUrArGrUrCrCrGrUrUrArUrCrAmAmCmUmUmGmAmAmAmAmAmGmUmGmGmCmAmCmCmGmAmGmUmCmGmGmUmGmCmU*mU*mU*mU	44.80%	95.83%	21.63%	0
